The values that follow come from publication PMC12583548 (Nature Communications, 2025).

Usually Kd stands for the free concentration of one partner at which half of the binding sites on the other are occupied at equilibrium, for simple one-to-one binding. Broadly, the koff is a measure of how fast the partners let go of each other. Usually kon stands for the second-order rate constant of association. A word on the stoichiometry N: it is the number of molecules, sites or subunits per partner or assembly.

Where “and” joins values, the source holds several entries; their conditions need not be identical. Equal values may be shown once.

For data set [1], the target named is T1, human FcRn mutant D153E (ectodomain heterodimer with β2M) (human, UniProt P55899 24-297; P61769 21-119, D153E).
T1 construct: signal peptide in the construct; ectodomain of the FcRn α-chain (FCGRT gene), Met1-Ser297 of UniProt P55899; β-2-microglobulin, Met1-Met119 of UniProt P61769; source: CHO-S, electroporated, purified from the medium (StrepTrap XT)
The experiment in a line: BLI; HAstV1 spike loaded, FcRn mutants in solution at 500, 250, 125, 62.5 and 31.25 nM; pH 7.0; 1:1 model. The conditions noted are these: both partners purified. (In general: Biolayer interferometry detects binding as a change in optical thickness at a sensor tip.)

Data set [2] addresses T2, human FcRn mutant T149N_G151T (ectodomain heterodimer with β2M) (human, UniProt P55899 24-297; P61769 21-119, T149N | G151T).
T2 construct: signal peptide in the construct; ectodomain of the FcRn α-chain (FCGRT gene), Met1-Ser297 of UniProt P55899; β-2-microglobulin, Met1-Met119 of UniProt P61769; The change brings in the N-linked glycosylation site of mouse FcRn; source: CHO-S, electroporated, purified from the medium (StrepTrap XT)
Described as above. The following applies: both partners purified.

For data set [3], the target named is T3, neonatal Fc receptor (FcRn), recombinant human ectodomain heterodimer of FcRn α-chain and β2 microglobulin, … (human, UniProt P55899;P61769, biotin on the AviTag (where FcRn was loaded on streptavidin biosensors)).
T3 construct: also called human FcRn; wild-type FcRn; source: CHO-S, electroporated, purified from the medium (StrepTrap XT); not shown: AviTag, C-terminal, kept
Described as above. The conditions noted are these: both partners purified.

Data set [4] addresses T3, neonatal Fc receptor (FcRn), …. The experiment in a line: BLI; HIS1K biosensors loaded with 10x histidine-tagged spike, FcRn in solution at 1000, 500, 250, 125 and 62.5 nM; pH 7.0 buffer, 25 °C; 1:1 model. The following applies: both partners purified.
Data set [5] concerns the target T4, neonatal Fc receptor (FcRn), recombinant ectodomain heterodimer of FcRn α-chain and β2 microglobulin (human, UniProt P55899 24-297; P61769 21-119).
T4 construct: signal peptide in the construct; ectodomain of the wild-type FCGRT gene (FcRn α-chain), human, UniProt P55899, Met1-Ser297; followed by a C-terminal thrombin cleavage site before the tags; β-2-microglobulin (β2M), human, UniProt P61769, Met1-Met119; Tags were removed with thrombin only for crystallization; nothing is said of their removal for BLI; also called human FcRn; wild-type FcRn; source: …
The experiment in a line: BLI; streptavidin biosensors loaded with Avitag-biotinylated HAstV1 spike K467H (3 ug/mL), dipped into FcRn (2000 nM in the shown replicate); pH 7.0 (0.1 M sodium phosphate, 150 mM NaCl, 0.05% Tween-20); 25 °C; 1:1 binding model; triplicate. The conditions noted are these: both partners purified.

The target of data set [6] is T4, neonatal Fc receptor (FcRn), …. The experiment in a line: BLI; streptavidin biosensors loaded with Avitag-biotinylated HAstV1 spike K467H, dipped into FcRn; pH 5.0 (0.1 M sodium acetate, 150 mM NaCl, 0.05% Tween-20); 25 °C; 1:1 binding model; triplicate. The following applies: both partners purified.
Data set [7] concerns the molecule itself. The experiment in a line: crystal structure; FcRn-HAstV1 spike complex, tags removed, 3.4 Å; hanging drop, 0.1 M NaCl, 0.1 M Bis-Tris:HCl pH 6.1, 1 M ammonium sulfate.
Data set [8] has as its target T3, neonatal Fc receptor (FcRn), …. The experiment in a line: BLI; streptavidin biosensors loaded with Avitag-biotinylated spike, FcRn in solution (500-62.5 nM for the wild type); pH 5.0 (0.1 M sodium acetate, 150 mM NaCl, 0.05% Tween-20), 25 °C; 1:1 model. The conditions noted are these: both partners purified.
The target is the same in data set [9]. The experiment in a line: BLI; streptavidin biosensors loaded with Avitag-biotinylated spike, FcRn in solution (500-62.5 nM for the wild type); pH 7.0 (0.1 M sodium phosphate, 150 mM NaCl, 0.05% Tween-20), 25 °C; 1:1 model. The following applies: both partners purified.
For data set [10], the target named is HAstV1 capsid spike domain, Avitag-biotinylated (human astrovirus 1 (HAstV1), UniProt O12792 433-645, biotin on the Avitag). The experiment in a line: BLI; biosensors loaded with biotinylated HAstV1 spike (streptavidin, as in Fig. 1a); human or mouse FcRn in solution, 500, 250, 125, 62.5 nM; pH 7.0 (0.1 M sodium phosphate, 150 mM NaCl, 0.05% Tween-20), 25 °C; 1:1 model; average of three replicates. The following applies: both partners purified.

B1: HAstV1 capsid spike domain, 10x histidine-tagged (domain or fragment)
chain: KVVLTFGAPMSPNANNKQTWVNKPLDAPSGHYNVKIAKDVDHYLTMQGFTSIASVDWYTIDFQPSEAPAPIQGLQVLVNISKKADVYAIKQFVTAQTNNKHQVTSLFLVKVTTGFQVNNYLSYFYRASATGDATTNLLVRGDTYTAGISFTQGGWYLLTNTSIVDGAMPPGWVWNNVELKTNTAYHMDKGLVHLIMPLPESTQMCYEMLTSIP
notes: capsid spike domain of the HAstV1 capsid protein (ORF2), UniProt O12792; also called HAstV1 spike; WT; source: E. coli T7Express, purified (HisPur cobalt resin); not shown: His10, C-terminal, kept
B1: the Kd was found to be 1600 nM in [1], 500 nM in data set [2], 230 nM in data set [3] and 270 nM in data set [4]. Moreover, in data set [4], the koff is 0.014 s⁻¹. For the same molecule, in data set [4], the on-rate constant (kon) stood at 52000 M⁻¹ s⁻¹.

B2: HAstV1 capsid spike mutant K467H, Avitag-biotinylated (domain or fragment)
chain: KVVLTFGAPMSPNANNKQTWVNKPLDAPSGHYNVHIAKDVDHYLTMQGFTSIASVDWYTIDFQPSEAPAPIQGLQVLVNSSKKADVYAIKQFVTAQTNNKHQVTSLFLVKVTTGFQVNNYLSYFYRASATGDATTNLLVRGDTYTAGISFTQGGWYLLTNTSIVDGAMPPGWVWNNVELKTNTAYHMDKGLVHLIMPLPESTQMCYEMLTSIP
modifications: biotin on the Avitag
notes: also called HAstV1_K467H spike; HAstV1 spike K467H; source: T7Express E. coli, purified (HisPur cobalt resin); not shown: Avitag, C-terminal, kept
Turning to B2, in [5], the dissociation constant Kd was 19200 nM and 21500 nM and 26800 nM; the koff was 0.239 s⁻¹ and 0.259 s⁻¹ and 0.236 s⁻¹; the kon is 12500 M⁻¹ s⁻¹ and 12000 M⁻¹ s⁻¹ and 8800 M⁻¹ s⁻¹. For the same molecule, in data set [6], the equilibrium dissociation constant (Kd) is 447 nM and 869 nM and 1040 nM; the off-rate (koff) was 0.033 s⁻¹ and 0.0561 s⁻¹ and 0.0625 s⁻¹; the kon was 73900 M⁻¹ s⁻¹ and 64500 M⁻¹ s⁻¹ and 60200 M⁻¹ s⁻¹.

B3: HAstV1 capsid spike domain, tag removed with thrombin (domain or fragment)
chain: KVVLTFGAPMSPNANNKQTWVNKPLDAPSGHYNVKIAKDVDHYLTMQGFTSIASVDWYTIDFQPSEAPAPIQGLQVLVNISKKADVYAIKQFVTAQTNNKHQVTSLFLVKVTTGFQVNNYLSYFYRASATGDATTNLLVRGDTYTAGISFTQGGWYLLTNTSIVDGAMPPGWVWNNVELKTNTAYHMDKGLVHLIMPLPESTQMCYEMLTSIP
notes: capsid spike domain of the HAstV1 capsid protein (ORF2), UniProt O12792; Form used for the SEC complex and the crystal; also called HAstV1 spike; source: E. coli T7Express, purified (HisPur cobalt resin), tag removed with thrombin, SEC; not shown: His10, C-terminal, cleaved
As to B3, the “stoichiometry N” value in data set [7] stood at 2.

B4: HAstV1 capsid spike domain, Avitag-biotinylated (domain or fragment)
chain: KVVLTFGAPMSPNANNKQTWVNKPLDAPSGHYNVKIAKDVDHYLTMQGFTSIASVDWYTIDFQPSEAPAPIQGLQVLVNISKKADVYAIKQFVTAQTNNKHQVTSLFLVKVTTGFQVNNYLSYFYRASATGDATTNLLVRGDTYTAGISFTQGGWYLLTNTSIVDGAMPPGWVWNNVELKTNTAYHMDKGLVHLIMPLPESTQMCYEMLTSIP
modifications: biotin on the Avitag
notes: capsid spike domain of the HAstV1 capsid protein (ORF2), UniProt O12792; it may carry a further tag for the cobalt resin; also called biotinylated HAstV1 spike; Avitag-biotinylated HAstV1 spike; source: E. coli T7Express, purified (HisPur cobalt resin)
For the molecule B4, the Kd in data set [8] was 102 nM; in data set [9], 188 nM.

B5: HAstV8 capsid spike domain, 10x histidine-tagged (domain or fragment)
chain: GEQFRVLLTVGPPMAPNTANSQNWVNKTIVPPENQYTVKIGIDLEHYTTMQGFTPVESVSWYTADFQPSDEPSPIPGLYARVNNTKKADVYGVQQFKSSHTNNRHQITSVFLVRVTTSFQVINYTSYFIRGAESGSNVSNLKIRDQTYHTPLQFTQGKWYLLTSTVMHDGPTSSGWVWMNQELTNNIAYRVDPGMMYLITPPPAASQLYFELHTVLPQA
notes: capsid spike domain of the HAstV8 capsid protein (ORF2); also called HAstV8 spike; source: E. coli T7Express, purified (HisPur cobalt resin); not shown: His10, C-terminal, kept
Regarding B5, in data set [4], the dissociation constant (Kd) came out at 390 nM, the koff came out at 0.03 s⁻¹ and the kon was determined as 76000 M⁻¹ s⁻¹.

B6: recombinant mouse FcRn (receptor)
chain 1: SETRPPLMYHLTAVSNPSTGLPSFWATGWLGPQQYLTYNSLRQEADPCGAWMWENQVSWYWEKETTDLKSKEQLFLEALKTLEKILNGTYTLQGLLGCELASDNSSVPTAVFALNGEEFMKFNPRIGNWTGEWPETEIVANLWMKQPDAARKESEFLLNSCPERLLGHLERGRRNLEWKEPPSMRLKARPGNSGSSVLTCAAFSFYPPELKFRFLRNGLASGSGNCSTGPNGDGSFHAWSLLEVKRGDEHHYQCQVEHEGLAQPLTVDLDSSARSS
chain 2: IQKTPQIQVYSRHPPENGKPNILNCYVTQFHPPHIEIQMLKNGKKIPKVEMSDMSFSKDWSFYILAHTEFTPTETDTYACRVKHASMAEPKTVYWDRDM
With B6, in [10], the Kd stood at 58 nM, the koff was 0.003 s⁻¹ and the kon came to 52000 M⁻¹ s⁻¹.
